# Data published in patent US6624139B1, “Hypersensitive response elicitor-induced stress resistance” (Eden Bioscience Corporation, priority 1998, dated 2003).
# Where “and” joins values, the source holds several entries; their conditions need not be identical. Equal values may be shown once.
# How the values were obtained:
# Aphids (Aphids gossypii) = experiment: Aphid count per leaf on cotton, field trial; type: in vivo
# Source text: (§1) Aphids (Aphids gossypii) infect cotton during the entire growth season. The damage of aphid infection ranges from honeydew deposit that contaminates the lint and reduces crop value to defoliation that reduces or destroys crops. To protect plants from aphid infection, cotton is usually sprayed with insecticides, for example Asana XL when the infection pressure is not very high, and Admire when the infestation pressure is high. The effect of a hypersensitive response elicitor on aphids in cotton was studied by a trial involving a randomized complete block design. This involved treatment with Erwinia amylovora hypersensitive response elicitor (i.e. HP-100™) at 20, 60, and 80 ppm and a chemical insecticide, Asana XL, at 8 oz./ac. Each treatment involved foliar application beginning at cotyledon to three true leaves and thereafter at 14 day intervals using a backpack sprayer. Aphid counts and overall growth of the cotton were made immediately prior to spray application at 14, 28, 35, and 42 days after the first treatment (“DAT 1”). Twenty-five randomly selected leaves per plot were collected at the first three sampling dates and the leaves per plot at the final sampling date.
# cotton = experiment: Insecticide stress tolerance of cotton (defoliation, formed cotton balls); type: in vivo
# Source text: as §1
# 2. Hypersensitive response elicitor-treated cotton was more resistant to the damage caused by Pravado (Admire) and Asana. […]
# cucumber = experiment: Cucumber field trial under drought (survival, flowering, yield); type: in vivo; parameters: Yield/Replicate: unit not given beside the values; conditions: for Yield summed over the three replicates: control 39.3; for Yield/Replicate / kg/plant: replicates I-III; for % of the Yield Increase: versus control; for kg/plant: cucumber fruit yield
# Protocol: A cucumber field trial was set up to test the effect of Erwinia amylovora hypersensitive response elicitor on disease control, tolerance to drought stress, and yield. Three different rates were tested, there at 15, 30, and 60 μg/ml. In addition to hypersensitive response elicitor treatment, there was an untreated control. Each treatment contained three replicate plots. When the first true leaf emerges, hypersensitive response elicitor was sprayed with a back bag sprayer. The second spray was applied ten days after the first spray. The third application was right after the recovery of cucumber seedlings after the transplanting to the field. Individual treatment was randomly assigned in the field.
# When the first true leaf emerged (Day 0), a first application was sprayed. Usually cucumber seedlings are transplanted when seedlings show two true leaves. It has been known that the recovery rate after the transplanting is closely related to the size of the seedlings. Because of the drought, the seedlings were maintained in the nursery for an extra ten days and the second spray was applied on Day 10. Two days after the second spray, the plants were transplanted into fields and covered with plastic sheets. The plants had 4-5 true leaves.
# pepper = experiment: Pepper tolerance to SENCOR herbicide damage; type: in vivo
# Source text: Pepper seedlings were drenched with hypersensitive response elicitor at 20 ppm seven days before transplanting, sprayed seven days after the transplanting, and then, sprayed every fourteen days. Standard chemicals, Brave, Maneb, Kocide, and Admire, were used for the rest of the treatment. […] The pepper field was applied with the herbicide SENCOR which is not labeled for pepper. This herbicide is known to cause severe foliar damage to pepper in chemically-treated plants but not with hypersensitive response elicitor-treated plants.
# The difference between the adverse effect of the herbicide on the hypersensitive response elicitor and non-hypersensitive response elicitor treated plants is dramatic. […] In contrast, 53 out of the 60 chemically-treated pepper plants had severe damage, 40-57% of the leaves were damaged, and 20 plants were dead. The ability of hypersensitive response elicitors to help crops withstand the phytotoxic effects of a herbicide is very important benefit to in agricultural industry.
# [1] = cited from earlier work
molecule,measurement,setting,value
"HP-1000: Erwinia amylovora hypersensitive response elicitor protein applied to plants by foliar spray or drench (protein, UniProt Q01099 1-403, looked up) Harpin HrpN: MSLNTSGLGASTMQISIGGAGGNNGLLGTSRQNAGLGGNSALGLGGGNQNDTVNQLAGLLTGMMMMMSMMGGGGLMGGGLGGGLGNGLGGSGGLGEGLSNALNDMLGGSLNTLGSKGGNNTTSTTNSPLDQALGINSTSQNDDSTSGTDSTSDSSDPMQQLLKMFSEIMQSLFGDGQDGTQGSSSGGKQPTEGEQNAYKKGVTDALSGLMGNGLSQLLGNGGLGGGQGGNAGTGLDGSSLGGKGLQNLSGPVDYQQLGNAVGTGIGMKAGIQALNDIGTHSDSSTRSFVNKGDRAMAKEIGQFMDQYPEVFGKPQYQKGPGQEVKTDDKSWAKALSKPDDDGMTPASMEQFNKAKGMIKSAMAGDTGNGNLQARGAGGSSLGIDAMMAGDAINNMALGKLGAA",Number of aphids per leaf,"Aphids (Aphids gossypii); 20 μg/ml a.i., 1 spray, 14 DAT 1",0.2 a per leaf
same,Number of aphids per leaf,"Aphids (Aphids gossypii); 20 μg/ml a.i., 2 sprays, 28 DAT 1",7.8 b per leaf
same,Number of aphids per leaf,"Aphids (Aphids gossypii); 20 μg/ml a.i., 3 sprays, 35 DAT 1",22.9 b per leaf
same,Number of aphids per leaf,"Aphids (Aphids gossypii); 20 μg/ml a.i., 4 sprays, 42 DAT 1",322.1 a per leaf
same,Number of aphids per leaf,"Aphids (Aphids gossypii); 60 μg/ml a.i., 1 spray, 14 DAT 1",0.1 a per leaf
same,Number of aphids per leaf,"Aphids (Aphids gossypii); 60 μg/ml a.i., 2 sprays, 28 DAT 1",4.9 b per leaf
same,Number of aphids per leaf,"Aphids (Aphids gossypii); 60 μg/ml a.i., 3 sprays, 35 DAT 1",34.6 b per leaf
same,Number of aphids per leaf,"Aphids (Aphids gossypii); 60 μg/ml a.i., 4 sprays, 42 DAT 1",168.3 a per leaf
same,Number of aphids per leaf,"Aphids (Aphids gossypii); 80 μg/ml a.i., 1 spray, 14 DAT 1",0.0 a per leaf
same,Number of aphids per leaf,"Aphids (Aphids gossypii); 80 μg/ml a.i., 2 sprays, 28 DAT 1",2.7 b per leaf
same,Number of aphids per leaf,"Aphids (Aphids gossypii); 80 μg/ml a.i., 3 sprays, 35 DAT 1",25.8 b per leaf
same,Number of aphids per leaf,"Aphids (Aphids gossypii); 80 μg/ml a.i., 4 sprays, 42 DAT 1",510.2 a per leaf
same,Defoliation of cotton after second chemical spraying,"cotton; after Pravado (Admire) applied to all plots, elicitor especially at 80 ppm",no defoliation
same,No. balls/10 plants/replicate,"cotton; formed cotton balls on ten plants in each of four replicates, after insecticide stress, elicitor at 80 ppm",35
same,Yield summed over the three replicates,cucumber; 15 μg/ml,103.8
same,Yield/Replicate,"cucumber; 15 μg/ml, listed as HP 15",37.5 and 30.0 and 36.3
same,% of the Yield Increase,cucumber; 15 μg/ml,241%
same,Yield summed over the three replicates,cucumber; 30 μg/ml,133.2
same,Yield/Replicate,"cucumber; 30 μg/ml, listed as HP 30",46.2 and 42.9 and 44.1
same,% of the Yield Increase,cucumber; 30 μg/ml,339%
same,Final yield relative to control plants,cucumber; 30 ppm,three times greater yield
same,kg/plant,"cucumber; 15 μg/ml, listed as HP 15",1.25 kg/plant and 1.00 kg/plant and 1.21 kg/plant
same,kg/plant,"cucumber; 30 μg/ml, listed as HP 30",1.54 kg/plant and 1.43 kg/plant and 1.47 kg/plant
same,Start of flowering earlier than untreated control,cucumber; drought,14 days
same,Cucumber seedlings survived after transplanting,"cucumber; drought, untreated 57%",More than 80%
same,Cucumber fruits per plant in the first harvest,"cucumber; drought, virtually no fruit from untreated control",more than 0.4 kilograms
same,Number of plants with Damage Rating 1,"pepper; 1 = No damage, 60 plants, SENCOR herbicide, elicitor 20 ppm",1
same,Number of plants with Damage Rating 2,"pepper; 2 = 0-20% leaves damaged, 60 plants, SENCOR herbicide",38
same,Number of plants with Damage Rating 3,"pepper; 3 = 20-40% leaves damaged, 60 plants, SENCOR herbicide",17
same,Number of plants with Damage Rating 4,"pepper; 4 = 40-50% leaves damaged, 60 plants, SENCOR herbicide",3
same,Number of plants with Damage Rating 6,"pepper; 6 = More than 75% leaves damaged or entire plant dead, 60 plants, SENCOR herbicide",0
same,Plants with only minor damage by the herbicide (damaged leaves less than 20%),"pepper; of 60 plants, SENCOR",Thirty-nine of the 60
same,Number of plants with Damage Rating 5,"pepper; rating 5 not defined in footnote, 60 plants, SENCOR herbicide",1
same,Damage Index %,"pepper; sum of rating times number of plants, divided by total plants times 6",41%
"hypersensitive response elicitor polypeptide or protein derived from Erwinia amylovora: hypersensitive response elicitor protein from Erwinia amylovora, amino acid sequence SEQ. ID. No. 3 (protein, listed as Erwinia amylovora) MSLNTSGLGASTMQISIGGAGGNNGLLGTSRQNAGLGGNSALGLGGGNQNDTVNQLAGLLTGMMMMMSMMGGGGLMGGGLGGGLGNGLGGSGGLGEGLSNALNDMLGGSLNTLGSKGGNNTTSTTNSPLDQALGINSTSQNDDSTSGTDSTSDSSDPMQQLLKMFSEIMQSLFGDGQDGTQGSSSGGKQPTEGEQNAYKKGVTDALSGLMGNGLSQLLGNGGLGGGQGGNAGTGLDGSSLGGKGLQNLSGPVDYQQLGNAVGTGIGMKAGIQALNDIGTHRHSSTRSFVNKGDRAMAKEIGQFMDQYPEVFGKPQYQKGPGQEVKTDDKSWAKALSKPDDDGMTPASMEQFNKAKGMIKRPMAGDTGNGNLQARGAGGSSLGIDAMMAGDAINNMALGKLGAA",Time heat stable at 100° C.,[1],at least 10 minutes
